The source of these data is paper PMC11544243 (Nature Communications, 2024).

Experiment in all cases: SEC-MALS
In data set [1] the target is MBP-BICD-1 CTF (C. elegans).
The target in the next data set is Trx-EAT-17F (C. elegans) (UniProt S6F527).
The data set “SEC-MALS” deals with the molecule itself.

MBP-BICD-1 CTF (domain or fragment): the stoichiometry N (in general, the number of molecules, sites or subunits per partner or assembly) in data set [1] is 2. In the data set with Trx-EAT-17F (C. elegans), the stoichiometry N (BICD-1 CTF per EAT-17F (printed as 2:2)) stood at 1.

B1: Trx-EAT-17F (natural protein, C. elegans, UniProt S6F527-6 1-396, looked up)
chain: MNSDVHRKLEGAYETIRELSSARRDNIMDTGTQVDDTSMIEHIHSLQQELIEAHTRQADSENTLRDAKLRVSELEMANKRLLENEPSEDVAGLQEELISVKMREAESSLALKEMRQRLAELEQHWAKYVHVRAFDPSSASIEKESTSEAHSTQQQPSPPLTSARARLAKITASLIGGSTEETDNCISVRELEDQLMGVRIKEADTLAELKEMRQKVMELETQNHVCTNQLKRQDEEMKRVREDSEVLVKKRKELEDQLKDEKEKLDNKESEFNEGRINDRLKYSEAMQTIQDLQSSISQLELKKAEKWTQNQLRGSSVCDLDEESNSHGSICSNVDHLSLASDEMNALLADMTVRIPTLDDLAEEGSATETDELRPKELNDGNDTTDSGVQLSDSH
In the case of B1, the “stoichiometry N” value in “SEC-MALS” came to 2.
